Reference: patent US20240069033A1, “METHOD FOR SCREENING FOR CANDIDATE MOLECULE CAPABLE OF FORMING COMPLEX IN CONJUNCTION WITH PLURALITY OF TARGET MOLECULES” (Chugai Seiyaku Kabushiki Kaisha, priority 2020, published 2024)

Assays:
biotinylated GFP1-9 [1] = experiment: mRNA display pull-down: 0.42 µM Display molecule with 1 µM biotinylated GFP1-9, streptavidin beads, TEV elution, qPCR
biotinylated GFP1-9 [2] = experiment: mRNA display pull-down with biotinylated GFP1-9, qPCR; corrected with the display efficiency
biotinylated GFP1-9 [3] = experiment: cell-based or functional assay
GFP10-Link12-FRB-His×6 = experiment: cell-based or functional assay
[4] = target: anti-ubiquitin antibody (Mouse IgG1 monoclonal antibody; clone name FK2); experiment: mRNA display pull-down on anti-ubiquitin antibody (FK2) magnetic beads, qPCR; 1:1 mixture of the two display molecules
[5] = target: anti-ubiquitin antibody (Mouse IgG1 monoclonal antibody; clone name FK2); experiment: mRNA display pull-down on anti-ubiquitin antibody (FK2) magnetic beads, qPCR; 1:1 mixture; corrected with the display efficiency
[6] = target: anti-ubiquitin antibody (Mouse IgG1 monoclonal antibody; clone name FK2); experiment: mRNA display pull-down on anti-ubiquitin antibody (FK2) magnetic beads, qPCR; corrected with the display efficiency
[7] = target: anti-ubiquitin antibody (Mouse IgG1 monoclonal antibody; clone name FK2); experiment: mRNA display pull-down on anti-ubiquitin antibody (FK2) magnetic beads, heat elution, qPCR
[8] = target: anti-ubiquitin antibody (Mouse IgG1 monoclonal antibody; clone name FK2); experiment: mRNA display pull-down on anti-ubiquitin antibody (FK2) magnetic beads, qPCR

GFP10-11 fusion peptide (peptide; modification not given; biotinylated at the Avi tag (co-expression with BirA)), sequence (chain, as listed by the source): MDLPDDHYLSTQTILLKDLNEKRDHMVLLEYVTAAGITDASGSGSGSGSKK
His×6-FKBP12-Link12-GFP11, sequence (chain): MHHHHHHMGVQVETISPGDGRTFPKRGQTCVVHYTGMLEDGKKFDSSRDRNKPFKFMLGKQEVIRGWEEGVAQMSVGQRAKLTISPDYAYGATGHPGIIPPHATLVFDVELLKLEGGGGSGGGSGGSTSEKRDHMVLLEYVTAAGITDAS
GFP10-Link12-FRB-His×6, sequence (chain): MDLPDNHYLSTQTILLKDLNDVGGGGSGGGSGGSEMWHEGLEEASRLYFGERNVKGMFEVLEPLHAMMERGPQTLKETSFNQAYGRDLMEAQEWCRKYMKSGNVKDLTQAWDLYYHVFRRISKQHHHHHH

With “GFP10-11 fusion peptide (peptide; modification not given; biotinylated at the Avi tag (co-expression with BirA))” the Apparent recovery rate (%) (biotinylated GFP1-9 [1]) was 13.1%, the Recovered nucleic acid amount (molecules) (biotinylated GFP1-9 [1]) was 1.31e+11 molecules and the Recovery rate (%) (biotinylated GFP1-9 [2]) was 23.4%.

For GFP10-Link12-FRB-His×6, the Recovered nucleic acid amount (molecules) of compound nk06 by pull-down with biotinylated GFP1-9; Condition 4, FKBP12-GFP11 absent (biotinylated GFP1-9 [3]) was 2.24e+08 molecules and the Recovery rate (%) of compound nk06 by pull-down with biotinylated GFP1-9; Condition 4, FKBP12-GFP11 absent (biotinylated GFP1-9 [3]) was 0.055%.

With His×6-FKBP12-Link12-GFP11 the Recovered nucleic acid amount (molecules) of compound nk06 (rapamycin-nucleic acid) by pull-down with biotinylated GFP1-9; Condition 1, all three proteins at 1 µM (GFP10-Link12-FRB-His×6) was 3.5e+10 molecules, the Recovery rate (%) of compound nk06 (rapamycin-nucleic acid) by pull-down with biotinylated GFP1-9; Condition 1, all three proteins at 1 µM (GFP10-Link12-FRB-His×6) was 8.62% and the Recovered nucleic acid amount (molecules) of compound nk06 by pull-down with biotinylated GFP1-9; Condition 3, GFP10-FRB absent (biotinylated GFP1-9 [3]) was 8.21e+08 molecules. The Recovery rate (%) of compound nk06 by pull-down with biotinylated GFP1-9; Condition 3, GFP10-FRB absent (biotinylated GFP1-9 [3]) was 0.202%.

With splitUb (N) + splitUb (C) the Apparent recovery rate (%) [4] was 0.194%, the Recovered nucleic acid amount (molecules) [4] was 7.16e+09 molecules and the Recovery rate (%) [5] was 0.344%.

With splitUb(C) (peptide) the Recovery rate (%) [6] was 1.01%, the Apparent recovery rate (%) [7] was 0.571% and the Recovered nucleic acid amount (molecules) [7] was 1.16e+10 molecules.

In the case of splitUb(N-C), the Recovery rate (%) [6] is reported as 16.1%, the Apparent recovery rate (%) [7] is reported as 12.3% and the Recovered nucleic acid amount (molecules) [7] is reported as 6.69e+10 molecules. For the same substance, the fold higher recovery rate than the other controls [8] was over 16 times.
